The source of these data is PMC4846438, “The crystal structure of human dopamine β-hydroxylase at 2.9 Å resolution” (Science Advances, 2016).

“And” between values parts separate entries of the source, which are not always exact repeats. Equal values may be shown once.

Usually stoichiometry N stands for the number of molecules, sites or subunits per partner or assembly.

This data set concerns the molecule itself. As to the kind of experiment: SEC; Superdex 200 HR 16/60, 10 mM Hepes, 150 mM NaCl, pH 7.5, 1 ml/min; dimer and tetramer separated; they do not interconvert in the pH interval 4 to 9. (In general: Size exclusion chromatography separates by hydrodynamic size, large species first.)

B1: soluble human dopamine β-hydroxylase, residues 40 to 617, FLAG-tagged (enzyme, UniProt P09172 40-617, looked up)
chain: SAPRESPLPYHIPLDPEGSLELSWNVSYTQEAIHFQLLVRRLKAGVLFGMSDRGELENADLVVLWTDGDTAYFADAWSDQKGQIHLDPQQDYQLLQVQRTPEGLTLLFKRPFGTCDPKDYLIEDGTVHLVYGILEEPFRSLEAINGSGLQMGLQRVQLLKPNIPEPELPSDACTMEVQAPNIQIPSQETTYWCYIKELPKGFSRHHIIKYEPIVTKGNEALVHHMEVFQCAPEMDSVPHFSGPCDSKMKPDRLNYCRHVLAAWALGAKAFYYPEEAGLAFGGPGSSRYLRLEVHYHNPLVIEGRNDSSGIRLYYTAKLRRFNAGIMELGLVYTPVMAIPPRETAFILTGYCTDKCTQLALPPSGIHIFASQLHTHLTGRKVVTVLVRDGREWEIVNQDNHYSPHFQEIRMLKKVVSVHPGDVLITSCTYNTEDRELATVGGFGILEEMCVNYVHYYPQTQLELCKSAVDAGFLQKYFHLINRFNNEDVCTCPQASVSQQFTSVPWNSFNRDVLKALYSFAPISMHCNKSSAVRFQGEWNLQPLPKVISTLEEPTPQCPTSQGRSPAGPTVVSIGGGKG
modifications: glycosylation at Asn64, Asn184, Asn344 and Asn566; intermolecular disulfides C528-C530 and C530-C528 between the two chains of the dimer
notes: human dopamine β-hydroxylase, residues 40 to 617; the first 39 residues (signal anchor for type II membrane proteins) left out to obtain soluble DBH; the dimeric fraction was crystallised; A SeMet-labelled form was used for phasing only; also called DBH; dopamine β-monooxygenase; not shown: FLAG, C-terminal, kept
As for B1, the “stoichiometry N” value is 2 and 4.
